According to patent publication US20200270365A1:

What was measured:
[1] = biological target: biotin-PCSK9-his (human) (UniProt Q8NBP7); assay: competitive ELISA, one antibody coated, biotin-PCSK9-his + 50-fold competing antibody; competitor h011-3133-YTE
[2] = biological target: biotin-PCSK9-his (human) (UniProt Q8NBP7); assay: competitive ELISA, one antibody coated, biotin-PCSK9-his + 50-fold competing antibody; competitor 21B12 (itself)

## 21B12 (U.S. Pat. No. 8,030,457B2) (antibody)
[1]
  IR (%): 3.01%
[2]
  IR (%): 97.8%
